Experimental data taken from IntAct's records for PubMed 16254079.

B1: Proliferation-associated protein 2G4 (Homo sapiens), Q9UQ80 (parent)
chain: MSGEDEQQEQTIAEDLVVTKYKMGGDIANRVLRSLVEASSSGVSVLSLCEKGDAMIMEETGKIFKKEKEMKKGIAFPTSISVNNCVCHFSPLKSDQDYILKEGDLVKIDLGVHVDGFIANVAHTFVVDVAQGTQVTGRKADVIKAAHLCAEAALRLVKPGNQNTQVTEAWNKVAHSFNCTPIEGMLSHQLKQHVIDGEKTIIQNPTDQQKKDHEKAEFEVHEVYAVDVLVSSGEGKAKDAGQRTTIYKRDPSKQYGLKMKTSRAFFSEVERRFDAMPFTLRAFEDEKKARMGVVECAKHELLQPFNVLYEKEGEFVAQFKFTVLLMPNGPMRITSGPFEPDLYKSEMEVQDAELKALLQSSASRKTQKKKKKKASKTAENATSGETLEENEAGD
partner: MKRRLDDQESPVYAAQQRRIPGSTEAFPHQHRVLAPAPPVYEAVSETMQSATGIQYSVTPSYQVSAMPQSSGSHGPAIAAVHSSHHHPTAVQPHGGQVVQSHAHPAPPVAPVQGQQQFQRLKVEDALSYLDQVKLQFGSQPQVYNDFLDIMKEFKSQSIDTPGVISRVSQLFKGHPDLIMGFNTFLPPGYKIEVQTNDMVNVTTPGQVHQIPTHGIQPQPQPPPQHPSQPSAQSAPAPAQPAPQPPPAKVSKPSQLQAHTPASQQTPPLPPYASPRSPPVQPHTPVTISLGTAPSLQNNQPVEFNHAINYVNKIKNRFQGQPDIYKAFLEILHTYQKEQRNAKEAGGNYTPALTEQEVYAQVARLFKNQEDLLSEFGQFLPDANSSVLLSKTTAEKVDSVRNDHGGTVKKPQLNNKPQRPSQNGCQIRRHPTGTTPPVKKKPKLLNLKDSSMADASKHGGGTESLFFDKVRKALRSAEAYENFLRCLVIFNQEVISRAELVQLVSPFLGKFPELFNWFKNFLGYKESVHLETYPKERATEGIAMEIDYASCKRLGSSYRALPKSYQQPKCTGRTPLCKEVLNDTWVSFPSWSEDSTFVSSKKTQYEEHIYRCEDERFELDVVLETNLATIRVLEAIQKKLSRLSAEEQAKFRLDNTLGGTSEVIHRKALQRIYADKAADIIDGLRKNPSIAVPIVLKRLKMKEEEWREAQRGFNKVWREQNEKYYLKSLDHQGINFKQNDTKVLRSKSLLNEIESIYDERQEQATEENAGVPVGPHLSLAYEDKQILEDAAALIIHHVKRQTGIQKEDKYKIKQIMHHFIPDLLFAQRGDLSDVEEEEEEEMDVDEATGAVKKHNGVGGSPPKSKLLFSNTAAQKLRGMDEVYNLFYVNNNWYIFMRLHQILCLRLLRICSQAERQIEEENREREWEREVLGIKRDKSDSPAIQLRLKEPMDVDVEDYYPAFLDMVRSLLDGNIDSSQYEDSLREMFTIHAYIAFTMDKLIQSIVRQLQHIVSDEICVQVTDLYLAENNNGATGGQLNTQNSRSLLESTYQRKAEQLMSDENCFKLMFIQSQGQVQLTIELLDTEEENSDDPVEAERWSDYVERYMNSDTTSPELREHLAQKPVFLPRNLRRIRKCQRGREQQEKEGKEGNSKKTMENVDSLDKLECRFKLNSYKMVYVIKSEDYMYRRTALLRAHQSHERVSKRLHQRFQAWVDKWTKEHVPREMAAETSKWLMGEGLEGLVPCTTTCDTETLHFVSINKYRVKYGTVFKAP

Variants of: B1
Conditions: with sin3a_human SIN3A

Row | Variant | effect of a mutation on the interaction
1 | L357A;L358A | disrupting interaction
